Laboratory results: patent US20030186322A1 (Scripps Research, published 2003)

B1: 92H2 phage Fv (VH-(Gly4Ser)-pVII / VL-(Gly4Ser)-pIX heterodimer displayed on phage) (other)
VH: MAEVQLQQSGPELKKPGETVKISCKTSGYSFTNYGMNWVKQAPGKGLKWMGWINTYTGEPTYADDFRGRFAFSLATSASTAYLQIINLKNEDTATYFCETYDSPLGDYWGQGTTVTVSSSSGGGGSGMEQVADFDTIYQAMIQISVVLCFALGIIAGGQR
VL: DIGLTQSPASLAVSLGQRATISCRASKSVSTSGYNYMHWYQQKPGQPPKLLIYLASNLASGVPARFSGSGSGTDFTLNIHPVEEEDAATYYCLYSREFPPWTFGGGTKLEIKRSGGGGSMSVLVYSFASFVLGWCLRSGITYFTRLMETSS
notes: also called 92H2 phage antibody; 92H2-VHVL
B2: 2H6 phage Fv (VH-(Gly4Ser)-pVII / VL-(Gly4Ser)-pIX heterodimer displayed on phage) (other)
VH: MAEVQLLEEVNLVESGGGLVKPGGSLKLSCAASGFTFSSYAMSWVRQTPEKRLEWVASINNGGKIYYPDSVKGRFTISRDNARNILYLQMSSLRSEDTAMYYCVKRDSSVYDYAMDNWGQGTSVTVSSGGGGSGMEQVADFDTIYQAMIQISVVLCFALGIIAGGQR
VL: VLTQSPAIMYASPGEKVTITCSASSSVSYMHWFQQKPGTSPKLWIYSTSKLASGVPARFSGSGSGTSYSLTISRMEAEDVATYYCQQRSSYTVTFGAGTKLELKRTSGGGGSMSVLVYSFASFVLGWCLRSGITYFTRLMETSS
notes: also called 2H6 phage antibody; 2H6-VHVL
B3: 21H3 phage Fv (VH-(Gly4Ser)-pVII / VL-(Gly4Ser)-pIX heterodimer displayed on phage) (other)
VH: MAEVQLLEVQLQQSGPVLVKPGGSVKMSCKASEYTLTSYLFQWVKQKSGQGLEWIGYIYPYNGGTRYNEKFRGKATLTSDKSSNTAYLELSSLTSEDSAVYYCARSSMSDPGANWGPGTLVTVSGGGGSGMEQVADFDTIYQAMIQISVVLCFALGIIAGGQR
VL: DIQMTQSPSSLSASLGERVSLTCRASQEISGYLYWLQQKPDGTIKRLIYAASTLDSGVPKRFSGSRSGSDYSLTISSLESEDFADYYCLQYASYPRTFGGGTKVEIKRADSGGGGSMSVLVYSFASFVLGWCLRSGITYFTRLMETSS
notes: also called 21H3 phage antibody; 21H3-VHVL

Biological target: T1, BSA (bovine serum albumin) (bovine, UniProt P02769 25-607)
T1 construct: Carrier protein without hapten; also called BSA-gold complex
Experiment: phage ELISA
Method: The supernatant of the phage culture described above was directly used for ELISA. Microtiter wells (Corning) were coated with 25 μl of 10 μg/ml mouse anti-Flag antibody to assay Flag constructs with pVII/pIX, with PCP-BSA for 21H3 and 2H6 constructs, and with the cocaine conjugate GNC—BSA to assay the 92H2 construct. The coated plates were then incubated at room temperature overnight and blocked with 50 μl of Blotto (4% skim milk powder in PBS). Typically, 25 μl of phage supernatant was added and the plate was incubated at 37 C. for 1 hr. After washing, 25 μl of 1/1000 dilution of horseradish peroxidase/anti-M13 conjugate (Pharmacia) in Blotto was added and incubated at 37 C. for 30 minutes. The plate was extensively washed three times with PBS/0.1% tween-20 and pipetted vigorously up and down to remove nonspecific binding phage. The plate was then developed with TMB (3,3′,5,5′-tetramethylbenzidine) substrate (Pierce) and quenched with an equal volume of 2 M H₂SO₄. The absorbance of each reaction was then read on an ELISA Plate reader at 450 nM.

T1 sequence (P02769 25-607 limits assumed): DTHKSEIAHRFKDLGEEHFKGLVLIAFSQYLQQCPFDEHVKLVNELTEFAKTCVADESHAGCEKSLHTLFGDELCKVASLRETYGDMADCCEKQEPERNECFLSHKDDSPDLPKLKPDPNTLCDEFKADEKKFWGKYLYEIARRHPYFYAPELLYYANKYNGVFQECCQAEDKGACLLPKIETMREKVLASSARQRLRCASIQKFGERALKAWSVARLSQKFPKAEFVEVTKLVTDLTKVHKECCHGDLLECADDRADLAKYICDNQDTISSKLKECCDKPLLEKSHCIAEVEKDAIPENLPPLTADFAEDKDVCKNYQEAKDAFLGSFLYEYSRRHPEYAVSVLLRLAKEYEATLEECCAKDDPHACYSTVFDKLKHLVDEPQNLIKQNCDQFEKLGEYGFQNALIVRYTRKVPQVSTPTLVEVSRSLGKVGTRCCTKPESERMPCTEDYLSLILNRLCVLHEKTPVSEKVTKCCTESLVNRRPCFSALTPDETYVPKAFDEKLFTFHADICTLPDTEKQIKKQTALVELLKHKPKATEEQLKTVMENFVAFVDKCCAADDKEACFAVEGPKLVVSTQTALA

| Binder | binding result |
| --- | --- |
| B1 | no binding |
| B2 | no binding |
| B3 | no binding |
